According to publication PMC7527728, “CPSF6-Dependent Targeting of Speckle-Associated Domains Distinguishes Primate from Nonprimate Lentiviral Integration” (mBio, 2020):

Biological target: CPSF6_(276–290/F284A) peptide (human)
Experiment: fluorescence polarisation; 150 nM FITC-Ahx-labelled peptide mixed with increasing capsid NTD protein (2 μM to 2 mM) in 50 mM Tris-HCl pH 8.0, 50 mM NaCl, 384-well plates; one-site specific binding model; the EIAV constants are called apparent

Substance	Kd [mM]
HIV-1 capsid N-terminal domain (NTD) protein (domain or fragment)	> 6
MLV capsid N-terminal domain (NTD) protein (domain or fragment)	> 8
